The values below come from PMC8686763, “Pre-Steady-State Kinetics of the SARS-CoV-2 Main Protease as a Powerful Tool for Antiviral Drug Discovery” (Frontiers in Pharmacology, 2021).

Usually Kd stands for the free concentration of one partner at which half of the binding sites on the other are occupied at equilibrium, for simple one-to-one binding. Read a low Kd as tighter binding. One may read the koff as a measure of how fast the partners let go of each other. As usually defined, the kon is the rate constant with which the complex forms.

The target of this assay is FRET substrate Dabcyl-[…]-E(Edans)-NH2 (SARS-CoV-2). Put plainly: stopped-flow fluorescence kinetics (FRET signal of the Edans/Dabcyl peptide).

For the substance “SARS-CoV-2 main protease, catalytically inactive mutant C145A (enzyme)”, the Ka worked out at 1.6e+06 M⁻¹, the Kd came out at 0.6 µM, the off-rate (koff) turned out to be 0.18 s⁻¹ and the kon is 280000 M⁻¹ s⁻¹.
